Data published in patent US12269859B2, “Synthetic immune receptors and methods of use thereof” (Angeles Therapeutics, Inc., priority 2016, dated 2025).

Test system: target antigen-expressing cell line
Assay: Jurkat NFAT-GFP assay, coculture with target cell lines expressing the respective target antigen (summary Table 10A)
Format: cell-based, human
Set-up: key: The signs +/−, +, 2+ etc. after the name of the cell lines indicate the relative degree of positivity on the Jurkat-NFAT-GFP assay as measured by the % GFP positive cells; +: relative degree of positivity on the Jurkat-NFAT-GFP assay as measured by the % GFP positive cells; 2+: relative degree of positivity on the Jurkat-NFAT-GFP assay as measured by the % GFP positive cells
Conditions: relative % GFP positive cells; for NFAT-GFP ASSAY Positive Cell lines: RAJI: SIR-expressing Jurkat-NFAT-GFP cells cocultured with RAJI; for NFAT-GFP ASSAY Positive Cell lines: LAN5: SIR-expressing Jurkat-NFAT-GFP cells cocultured with LAN5
Procedure: (B) Induction of NFAT promoter driven GFP expression. The control vector- and SIR-expressing Jurkat-NFAT-GFP cocultured for 4-24 hours with the target antigen-expressing cell line (described above) and their ability to bind to the target antigen is assayed by measuring induction of GFP expression using Flow Cytometry. Cellular supernatant is collected and assayed for the induction of cytokines (e.g., IL2).
Jurkat NFAT-GFP Assay For Synthetic Immune Receptors. The Jurkat-NFAT-GFP cells are engineered in such a way that the IL-2 promoter, which carries NFAT binding sites, is cloned upstream of the GFP gene. These cells have been used to study signaling via TCR and CAR. The different SIRs were stably expressed in Jurkat NFAT-GFP cells by lentiviral mediated gene transfer, followed by selection with puromycin. The SIR-expressing Jurkat-NFAT-GFP cells were cocultured with the target cells at E:T ratio of approximately 1:2 for approximately 4 hours to 18 hours. When the interaction between SIRs and their target antigen results in activation of the NFAT pathway, GFP expression is induced.
Induction of GFP expression by coculturing of Jurkat-NFAT-GFP cells expressing different SIR constructs and the different target cells was studied essentially as described previously (Wu, Roybal, Puchner, Onuffer, & Lim, 2015). GFP expression was monitored by FACS analysis. A few representative examples of this assay are shown in the FIG. 13A-B. In panel A, control Jurkat-NFAT-GFP cells or those expressing SIRs targeting CD19 (clone ID 051716-I08), MPL (Clone ID: 040716-A07) and BCMA (Clone ID: 011116-A07) were incubated with RAJI (top), HEL (middle) or U266 (bottom) cells, respectively. […] In panel B, Jurkat cells expressing SIR targeting CDH6 (Clone ID: 051716-J05), CD276 (Clone ID: 050516-Q06) and Her2/neu (Clone ID: 050516-I03) were incubated with SKOV3 (top) and […] (middle and bottom) cells, respectively. […] The Jurkat-NFAT-GFP cells were engineered to express different SIRs targeting other antigens and the experiment repeated upon coculture with the target cells expressing their respective target antigen. The Jurkat-NFAT-GFP (parental) cells were used as control. The names of different SIRs, their SEQ ID NOs, component antigen binding domains and TCR chains can be determined by reference to Tables 7A-7H. A SIR is considered positive in the assay in case the SIR expressing Jurkat-NFAT-GFP cells show greater % GFP positive cells when cultured with the target cell line as compared to parental Jurkat-NFAT-GFP cells. […] The signs +/−, +, 2+ etc. after the name of the cell lines indicate the relative degree of positivity on the Jurkat-NFAT-GFP assay as measured by the % GFP positive cells after culture of the SIR expressing Jurkat-NFAT-GFP cells with that cell line. […] In addition, great diversity of response against the same target cell line is observed with Jurkat cells expressing SIRs containing different antigen binding domains targeting the same antigen (e.g., SIRs having antigen binding domains derived form different CD19 antibodies) even when the SIRs share the same TCR chains and linkers. Finally, Jurkat cells expressing SIRs targeting different antigens (e.g. CD19 vs CD20) show a diversitiy of response when exposed to the same target cell line. Thus, a diverse immune response can be generated against a single target cell by combining SIRs with different TCR chains, linkers, antigen binding domains and target specificity. Table 10A also summarizes the results of GLuc based T cell cytotoxicity assay observed with different SIRs when exposed to their target cell lines. […]

| Molecule | NFAT-GFP ASSAY Positive Cell lines: RAJI | NFAT-GFP ASSAY Positive Cell lines: LAN5 |
| --- | --- | --- |
| 052316-D03 (protein, Synthetic Immune Receptor (SIR)) MALPVTALLLPLALLLHAARPDEIVLTQSPATLSLSPGERATLSCSASSSVSYMHWYQQKPGQAPRLLIYDTSKLASGIPARFSGSGSGTDFTLTISSLEPEDVAVYYCFQGSVYPFTFGQGTKLEIKRGGGGSGGGGSGGGGSQVQLQESGPGLVKPSQTLSLTCTVSGGSISTSGMGVGWIRQHPGKGLEWIGHIWWDDDKRYNPALKSRVTISVDTSKNQFSLKLSSVTAADTAVYYCARMELWSYYFDYWGQGTLVTVSSLEDLKNVFPPEVAVFEPSEAEISHTQKATLVCLATGFYPDHVELSWWVNGKEVHSGVSTDPQPLKEQPALNDSRYCLSSRLRVSATFWQNPRNHFRCQVQFYGLSENDEWTQDRAKPVTQIVSAEAWGRADCGFTSESYQQGVLSATILYEILLGKATLYAVLVSALVLMAMVKRKDSRGRAKRSGSGATNFSLLKQAGDVEENPGPTSMDWIWRILFLVGAATGAHSFEGSGTREQKLISEEDGSGIQNPDPAVYQLRDSKSSDKSVCLFTDFDSQTNVSQSKDSDVYITDKCVLDMRSMDFKSNSAVAWSNKSDFACANAFNNSIIPEDTFFPSPESSCDVKLVEKSFETDTNLNFQNLSVIGFRILLLKVAGFNLLMTLRLWSSRAKRSGSGVKQTLNFDLLKLAGDVESNPGPSRGHMTEYKPTVRLATRDDVPRAVRTLAAAFADYPATRHTVDPDRHIERVTELQELFLTRVGLDIGKVWVADDGAAVAVWTTPESVEAGAVFAEIGPRMAELSGSRLAAQQQMEGLLAPHRPKEPAWFLATVGVSPDHQGKGLGSAVVLPGVEAAERAGVPAFLETSAPRNLPFYERLGFTVTADVEVPEGPRTWCMTRKPGA | RAJI (+) |  |
| 121515-X07 (protein, Synthetic Immune Receptor (SIR)) MALPVTALLLPLALLLHAARPLEGKPIPNPLLGLDSTGSGEDLKNVFPPEVAVFEPSKAEIAHTQKATLVCLATGFYPDHVELSWWVNGKEVHSGVCTDPQPLKEQPALNDSRYCLSSRLRVSATFWQNPRNHFRCQVQFYGLSENDEWTQDRAKPVTQIVSAEAWGRADCGITSASYHQGVLSATILYEILLGKATLYAVLVSALVLMAMVKRKDSRGRAKRSGSGATNFSLLKQAGDVEENPGPTSTMALPVTALLLPLALLLHAARPDEIVLTQSPATLSLSPGERATLSCSASSSVSYMHWYQQKPGQAPRLLIYDTSKLASGIPARFSGSGSGTDFTLTISSLEPEDVAVYYCFQGSVYPFTFGQGTKLEIKRGGGGSGGGGSGGGGSQVQLQESGPGLVKPSQTLSLTCTVSGGSISTSGMGVGWIRQHPGKGLEWIGHIWWDDDKRYNPALKSRVTISVDTSKNQFSLKLSSVTAADTAVYYCARMELWSYYFDYWGQGTLVTVSSTREQKLISEEDLGSGTPFPSLAPPIMLLVDGKQQMVVVCLVLDVAPPGLDSPIWFSAGNGSALDAFTYGPSPATDGTWTNLAHLSLPSEELASWEPLVCHTGPGAEGHSRSTQPMHLSGEASTARTCPQEPLRGTPGGALWLGVLRLLLFKLLLFDLLLTCSCLCDPAGPLPSPATTTRLRALGSHRLHPATETGGREATSSPRPQPRDRRWGDTPPGRKPGSPVRAKRSGSGVKQTLNFDLLKLAGDVESNPGPSRGHMTEYKPTVRLATRDDVPRAVRTLAAAFADYPATRHTVDPDRHIERVTELQELFLTRVGLDIGKVWVADDGAAVAVWTTPESVEAGAVFAEIGPRMAELSGSRLAAQQQMEGLLAPHRPKEPAWFLATVGVSPDHQGKGLGSAVVLPGVEAAERAGVPAFLETSAPRNLPFYERLGFTVTADVEVPEGPRTWCMTRKPGA | RAJI (+) |  |
| 042916-D02 (protein, Synthetic Immune Receptor (SIR)) MALPVTALLLPLALLLHAARPLEGKPIPNPLLGLDSTGSGEDLKNVFPPEVAVFEPSKAEIAHTQKATLVCLATGFYPDHVELSWWVNGKEVHSGVCTDPQPLKEQPALNDSRYCLSSRLRVSATFWQNPRNHFRCQVQFYGLSENDEWTQDRAKPVTQIVSAEAWGRADCGITSASYHQGVLSATILYEILLGKATLYAVLVSALVLMAMVKRKDSRGRAKRSGSGATNFSLLKQAGDVEENPGPTSTMALPVTALLLPLALLLHAARPDVQMIQTPSSLSASLGDRVTISCRASQDIGNYLNWYQQKPDGTVKLLIYYTSRLHSGVPSRFSGSGSGTEYSLTISNLEQEDIATYFCQQGSALPPTFGGGTKLEINGGGGSGGGGSGGGGSALQLQQSGAELVRPGASVTLSCKASGYTFTDYEMHWVKQTPVHGLEWIGAIDPETGGTAYNQKFEGKAILTADKSSSTAYMELRSLTSEDSPVYYCARRRYYGSSSFDYWGQGTTLTVSSTREQKLISEEDGSGIQNPDPAVYQLRDSKSSDKSVCLFTDFDSQTNVSQSKDSDVYITDKCVLDMRSMDFKSNSAVAWSNKSDFACANAFNNSIIPEDTFFPSSDVPCDVKLVEKSFETDTNLNFQNLSVIGFRILLLKVAGFNLLMTLRLWSSRAKRSGSGVKQTLNFDLLKLAGDVESNPGPSRGHMTEYKPTVRLATRDDVPRAVRTLAAAFADYPATRHTVDPDRHIERVTELQELFLTRVGLDIGKVWVADDGAAVAVWTTPESVEAGAVFAEIGPRMAELSGSRLAAQQQMEGLLAPHRPKEPAWFLATVGVSPDHQGKGLGSAVVLPGVEAAERAGVPAFLETSAPRNLPFYERLGFTVTADVEVPEGPRTWCMTRKPGA |  | LAN5 (2+) |
| 042916-C05 (protein, Synthetic Immune Receptor (SIR)) MALPVTALLLPLALLLHAARPLEGKPIPNPLLGLDSTGSGEDLKNVFPPEVAVFEPSKAEIAHTQKATLVCLATGFYPDHVELSWWVNGKEVHSGVCTDPQPLKEQPALNDSRYCLSSRLRVSATFWQNPRNHFRCQVQFYGLSENDEWTQDRAKPVTQIVSAEAWGRADCGITSASYHQGVLSATILYEILLGKATLYAVLVSALVLMAMVKRKDSRGRAKRSGSGATNFSLLKQAGDVEENPGPTSTMALPVTALLLPLALLLHAARPDVQMIQTPDSLAVSLGQRATISCRASESVDNYGISFMHWYQQKPGQSPKLLIYRASNLESGIPARFSGSGSRTDFTLTINPVETDDVATYYCQQNNKDPPTFGGGTKLEIKGGGGSGGGGSGGGGSGGGGSQVQLQQSGAELVKPGASVKISCKASGYAFSSYWMNWVKQRPGKGLEWIGQIYPGDGDTTYNGKFKGKATLTADKSSSTVYMQLNSLTSEDSAVYFCVRYYYGSSGYFDYWGQGTTLTVSSTREQKLISEEDGSGIQNPDPAVYQLRDSKSSDKSVCLFTDFDSQTNVSQSKDSDVYITDKCVLDMRSMDFKSNSAVAWSNKSDFACANAFNNSIIPEDTFFPSSDVPCDVKLVEKSFETDTNLNFQNLSVIGFRILLLKVAGFNLLMTLRLWSSRAKRSGSGVKQTLNFDLLKLAGDVESNPGPSRGHMTEYKPTVRLATRDDVPRAVRTLAAAFADYPATRHTVDPDRHIERVTELQELFLTRVGLDIGKVWVADDGAAVAVWTTPESVEAGAVFAEIGPRMAELSGSRLAAQQQMEGLLAPHRPKEPAWFLATVGVSPDHQGKGLGSAVVLPGVEAAERAGVPAFLETSAPRNLPFYERLGFTVTADVEVPEGPRTWCMTRKPGA |  | LAN5 (+/−) |
